Experimental data published in US20140011738A1 (INDIANA UNIVERSITY RESEARCH AND TECHNOLOGY, published 2014).
*1 amine or outer side, *2 acyl side, *3 side chain or, on linkers, in order; H or OH if unused. Where no end group is shown, it is not given here. Side-chain parts run from the residue outwards. [ ]: non-standard residue; d: D form. The star is where a group is joined. γGlu = O=C(O)[C@H](CCC(=O)[*:2])N[*:1]; Palmitoyl = CCCCCCCCCCCCCCCC(=O)*; Aib = CC(C)(N)C(=O)O

T1: GIP receptor (UniProt P48546 22-466, limits assumed)
T1 sequence (looked up): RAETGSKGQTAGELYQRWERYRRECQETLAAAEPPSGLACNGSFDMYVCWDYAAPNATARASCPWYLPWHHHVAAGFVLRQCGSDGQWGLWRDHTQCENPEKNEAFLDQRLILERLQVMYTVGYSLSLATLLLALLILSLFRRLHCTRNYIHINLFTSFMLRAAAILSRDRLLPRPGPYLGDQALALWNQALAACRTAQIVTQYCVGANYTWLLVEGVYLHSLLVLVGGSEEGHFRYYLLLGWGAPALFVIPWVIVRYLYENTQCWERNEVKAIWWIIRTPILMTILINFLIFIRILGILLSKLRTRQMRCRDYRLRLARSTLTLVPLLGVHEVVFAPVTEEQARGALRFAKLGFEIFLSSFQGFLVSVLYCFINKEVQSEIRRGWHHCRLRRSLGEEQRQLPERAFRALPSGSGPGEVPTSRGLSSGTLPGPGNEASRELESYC

B1: peptide of SEQ ID NO: 16 (peptide)
peptide: H[Aib]QGTFTSEYSKYLDERAAQDFVQWLLDGGPSSGAPPPSK([γGlu-γGlu-Palmitoyl])G-NH2
B2: peptide of SEQ ID NO: 15 (peptide)
peptide: H[Aib]QGTFTSDYSKYLEERAAQDFVQWLLDGGPSSGAPPPSK([γGlu-γGlu-Palmitoyl])G-NH2
B3: peptide of SEQ ID NO: 18 (peptide)
peptide: H[Aib]QGTFTSDK([γGlu-Palmitoyl])SKYLEERAAQEFVQWLLEGGPSSGAPPPS-NH2
modifications: N-terminus assumed
SMILES: CCCCCCCCCCCCCCCC(=O)N[C@@H](CCC(=O)NCCCC[C@H](NC(=O)[C@H](CC(=O)O)NC(=O)[C@H](CO)NC(=O)[C@@H](NC(=O)[C@H](Cc1ccccc1)NC(=O)[C@@H](NC(=O)CNC(=O)[C@H](CCC(N)=O)NC(=O)C(C)(C)NC(=O)[C@@H](N)Cc1c[nH]cn1)[C@@H](C)O)[C@@H](C)O)C(=O)N[C@@H](CO)C(=O)N[C@@H](CCCCN)C(=O)N[C@@H](Cc1ccc(O)cc1)C(=O)N[C@@H](CC(C)C)C(=O)N[C@@H](CCC(=O)O)C(=O)N[C@@H](CCC(=O)O)C(=O)N[C@@H](CCCNC(=N)N)C(=O)N[C@@H](C)C(=O)N[C@@H](C)C(=O)N[C@@H](CCC(N)=O)C(=O)N[C@@H](CCC(=O)O)C(=O)N[C@@H](Cc1ccccc1)C(=O)N[C@H](C(=O)N[C@@H](CCC(N)=O)C(=O)N[C@@H](Cc1c[nH]c2ccccc12)C(=O)N[C@@H](CC(C)C)C(=O)N[C@@H](CC(C)C)C(=O)N[C@@H](CCC(=O)O)C(=O)NCC(=O)NCC(=O)N1CCC[C@H]1C(=O)N[C@@H](CO)C(=O)N[C@@H](CO)C(=O)NCC(=O)N[C@@H](C)C(=O)N1CCC[C@H]1C(=O)N1CCC[C@H]1C(=O)N1CCC[C@H]1C(=O)N[C@@H](CO)C(N)=O)C(C)C)C(=O)O
B4: peptide of SEQ ID NO: 44 (peptide)
peptide: H[Aib]EGTFTSDK([γGlu-Palmitoyl])SKYLDERAAQDFVQWLLEGGPSSGAPPPS-NH2
modifications: N-terminus assumed
SMILES: CCCCCCCCCCCCCCCC(=O)N[C@@H](CCC(=O)NCCCC[C@H](NC(=O)[C@H](CC(=O)O)NC(=O)[C@H](CO)NC(=O)[C@@H](NC(=O)[C@H](Cc1ccccc1)NC(=O)[C@@H](NC(=O)CNC(=O)[C@H](CCC(=O)O)NC(=O)C(C)(C)NC(=O)[C@@H](N)Cc1c[nH]cn1)[C@@H](C)O)[C@@H](C)O)C(=O)N[C@@H](CO)C(=O)N[C@@H](CCCCN)C(=O)N[C@@H](Cc1ccc(O)cc1)C(=O)N[C@@H](CC(C)C)C(=O)N[C@@H](CC(=O)O)C(=O)N[C@@H](CCC(=O)O)C(=O)N[C@@H](CCCNC(=N)N)C(=O)N[C@@H](C)C(=O)N[C@@H](C)C(=O)N[C@@H](CCC(N)=O)C(=O)N[C@@H](CC(=O)O)C(=O)N[C@@H](Cc1ccccc1)C(=O)N[C@H](C(=O)N[C@@H](CCC(N)=O)C(=O)N[C@@H](Cc1c[nH]c2ccccc12)C(=O)N[C@@H](CC(C)C)C(=O)N[C@@H](CC(C)C)C(=O)N[C@@H](CCC(=O)O)C(=O)NCC(=O)NCC(=O)N1CCC[C@H]1C(=O)N[C@@H](CO)C(=O)N[C@@H](CO)C(=O)NCC(=O)N[C@@H](C)C(=O)N1CCC[C@H]1C(=O)N1CCC[C@H]1C(=O)N1CCC[C@H]1C(=O)N[C@@H](CO)C(N)=O)C(C)C)C(=O)O
B5: peptide of SEQ ID NO: 17 (peptide)
peptide: H[Aib]QGTFTSDYAKYLDERAAQDFVQWLLDGGPSSGAPPPSK([γGlu-γGlu-Palmitoyl])G-NH2
B6: peptide of SEQ ID NO: 10 (peptide)
peptide: H[Aib]QGTFTSDK([γGlu-Palmitoyl])SKYLDERAAQDFVQWLLDGGPSSGAPPPS-NH2
B7: peptide of SEQ ID NO: 43 (peptide)
peptide: H[Aib]QGTFTSDK([γGlu-Palmitoyl])SKYLDERAAQDFVQWLLEGGPSSGAPPPS-NH2
modifications: N-terminus assumed
SMILES: CCCCCCCCCCCCCCCC(=O)N[C@@H](CCC(=O)NCCCC[C@H](NC(=O)[C@H](CC(=O)O)NC(=O)[C@H](CO)NC(=O)[C@@H](NC(=O)[C@H](Cc1ccccc1)NC(=O)[C@@H](NC(=O)CNC(=O)[C@H](CCC(N)=O)NC(=O)C(C)(C)NC(=O)[C@@H](N)Cc1c[nH]cn1)[C@@H](C)O)[C@@H](C)O)C(=O)N[C@@H](CO)C(=O)N[C@@H](CCCCN)C(=O)N[C@@H](Cc1ccc(O)cc1)C(=O)N[C@@H](CC(C)C)C(=O)N[C@@H](CC(=O)O)C(=O)N[C@@H](CCC(=O)O)C(=O)N[C@@H](CCCNC(=N)N)C(=O)N[C@@H](C)C(=O)N[C@@H](C)C(=O)N[C@@H](CCC(N)=O)C(=O)N[C@@H](CC(=O)O)C(=O)N[C@@H](Cc1ccccc1)C(=O)N[C@H](C(=O)N[C@@H](CCC(N)=O)C(=O)N[C@@H](Cc1c[nH]c2ccccc12)C(=O)N[C@@H](CC(C)C)C(=O)N[C@@H](CC(C)C)C(=O)N[C@@H](CCC(=O)O)C(=O)NCC(=O)NCC(=O)N1CCC[C@H]1C(=O)N[C@@H](CO)C(=O)N[C@@H](CO)C(=O)NCC(=O)N[C@@H](C)C(=O)N1CCC[C@H]1C(=O)N1CCC[C@H]1C(=O)N1CCC[C@H]1C(=O)N[C@@H](CO)C(N)=O)C(C)C)C(=O)O
B8: peptide of SEQ ID NO: 11 (peptide)
peptide: H[Aib]QGTFTSDYSKYLDERAAQDFVQWLLDGGPSSGAPPPSK([γGlu-γGlu-Palmitoyl])G-NH2

molecular target: glucagon receptor (UniProt P47871 26-477, limits assumed); assay: cell-based or functional assay
Sequence (P47871 26-477 limits assumed): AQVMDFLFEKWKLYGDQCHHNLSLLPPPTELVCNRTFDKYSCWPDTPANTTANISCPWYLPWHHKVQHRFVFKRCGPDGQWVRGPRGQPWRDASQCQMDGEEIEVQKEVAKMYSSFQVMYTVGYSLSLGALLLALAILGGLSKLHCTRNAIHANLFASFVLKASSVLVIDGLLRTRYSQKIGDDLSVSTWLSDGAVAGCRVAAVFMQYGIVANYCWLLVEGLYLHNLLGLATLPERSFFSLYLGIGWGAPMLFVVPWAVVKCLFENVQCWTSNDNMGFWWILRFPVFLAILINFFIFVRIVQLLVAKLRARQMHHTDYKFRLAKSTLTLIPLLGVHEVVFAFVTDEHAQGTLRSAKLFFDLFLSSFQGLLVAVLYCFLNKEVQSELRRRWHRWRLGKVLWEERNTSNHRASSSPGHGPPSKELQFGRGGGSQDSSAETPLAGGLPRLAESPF

Binder	EC50 at Glucagon Receptor [pM]
B1	28
B2	5
B3	7
B4	1470
B5	19
B6	4
B7	6
B8	4

molecular target: GLP-1 receptor (UniProt P43220 24-463, limits assumed); assay: cell-based or functional assay
Sequence (P43220 24-463 limits assumed): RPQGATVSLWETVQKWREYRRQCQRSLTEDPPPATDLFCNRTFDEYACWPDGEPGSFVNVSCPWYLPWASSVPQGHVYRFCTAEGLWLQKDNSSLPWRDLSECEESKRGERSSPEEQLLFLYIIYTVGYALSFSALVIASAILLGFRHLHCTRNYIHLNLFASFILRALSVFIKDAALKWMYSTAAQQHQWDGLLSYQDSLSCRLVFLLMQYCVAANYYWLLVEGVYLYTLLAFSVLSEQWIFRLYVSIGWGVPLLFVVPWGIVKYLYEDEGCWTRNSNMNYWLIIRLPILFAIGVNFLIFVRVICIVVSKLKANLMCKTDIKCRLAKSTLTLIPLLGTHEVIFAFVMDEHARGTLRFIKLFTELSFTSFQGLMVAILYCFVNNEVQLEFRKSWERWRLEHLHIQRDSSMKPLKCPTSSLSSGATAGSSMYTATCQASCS

Binder	EC50 at GLP-1 Receptor [pM]
B1	2
B2	3
B3	8
B4	7
B5	8
B6	4
B7	4
B8	1

molecular target: T1, GIP receptor; assay: cell-based or functional assay

Binder	EC50 at GIP Receptor [pM]
B1	54
B2	8
B3	7
B4	27
B5	20
B6	4
B7	5
B8	24
